Substitutions are numbered along the chain they refer to.
Key:
[1] = target: T1, human NKp46 (form in the assay not stated) (human, UniProt O76036 22-255, limits assumed); experiment: BIAcore
[2] = target: T1, human NKp46 (form in the assay not …); experiment: BIAcore; SE(KD) 2.20E-10
[3] = target: human GPC3 (form in the assay not stated) (human, UniProt P51654 25-559, limits assumed); experiment: method not stated
[4] = target: T2, Human NKp46 antigen (Acro Biosystems) expressed on HEK293 cells or CHO cells (human, UniProt O76036 22-255); experiment: ELISA on coated human NKp46 antigen, normalized binding curve
T2 construct: Bought
T2 sequence (O76036 22-255 limits assumed): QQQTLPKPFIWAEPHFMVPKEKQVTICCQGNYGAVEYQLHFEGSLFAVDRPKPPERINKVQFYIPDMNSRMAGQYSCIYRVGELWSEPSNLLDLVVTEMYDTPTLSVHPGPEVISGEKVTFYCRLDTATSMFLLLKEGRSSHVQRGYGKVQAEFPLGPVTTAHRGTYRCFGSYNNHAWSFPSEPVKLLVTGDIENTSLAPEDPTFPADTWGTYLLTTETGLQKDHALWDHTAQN

T1 sequence (O76036 22-255 limits assumed): as above
Chain of human GPC3 (form in the assay not stated) (P51654 25-559 limits assumed): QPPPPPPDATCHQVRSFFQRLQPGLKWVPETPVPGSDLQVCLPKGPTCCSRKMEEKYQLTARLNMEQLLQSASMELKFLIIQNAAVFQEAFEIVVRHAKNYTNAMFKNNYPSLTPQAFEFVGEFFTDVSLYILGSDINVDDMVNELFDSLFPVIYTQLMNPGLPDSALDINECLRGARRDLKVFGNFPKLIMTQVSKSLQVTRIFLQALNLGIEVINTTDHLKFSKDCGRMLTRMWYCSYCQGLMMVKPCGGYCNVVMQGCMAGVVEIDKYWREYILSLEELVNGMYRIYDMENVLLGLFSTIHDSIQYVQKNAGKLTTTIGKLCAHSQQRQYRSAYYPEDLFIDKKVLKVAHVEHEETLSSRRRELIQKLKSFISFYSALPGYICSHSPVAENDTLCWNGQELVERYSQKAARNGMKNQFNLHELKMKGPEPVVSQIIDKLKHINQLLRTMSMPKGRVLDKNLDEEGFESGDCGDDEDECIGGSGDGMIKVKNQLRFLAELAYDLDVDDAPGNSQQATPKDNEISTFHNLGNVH

B1: mouse anti-NKp46 monoclonal antibody 09 (antibody, V domains shown)
VH: EVQLQQSGPELVKPGTSVKISCKTSGYTFTEYSMHWVKQSHGKSLEWFGGISPNSGGTSYNQKFKGKATLTVDKSSSTAYMELRSLTSEDSAVYYCARRDFHSSFDYWGQGTTLTVSS
VL: DIVMTQSPATLSVTPGDRVSLSCRASQSISDYLHWFQQKSHESPRLLIKYASQSISGIPSRFSGSGSGSDFTLSINSVEPEDVGVYYCQNGHSFPLTFGPGTKLELK
notes: Mouse hybridoma antibody raised in NKp46-deficient mice against NKp46-Ig; also called 09 antibody; mAb 09
Binder B1 has a kon [1] of 6.22e+07 M⁻¹ s⁻¹.

B2: mouse anti-NKp46 monoclonal antibody 12 (antibody, V domains shown)
VH: B1 VH
VL: B1 VL with M4L, D17N, R18S
notes: Mouse hybridoma antibody; also called 12 antibody; mAb 12
B2 gave a Kd [2] of 1.67 nM.

B3: NKE1 (GPC3/NKp46/wt_IgG1), FLEX-NK tetravalent NKp46 engager directed against GPC3 (bispecific antibody)
heavy: not shown
light 1: DIVMTQSPATLSLSPGERATLSCRASQSISDYLHWFQQKPHESPRLLIKYASQSISGIPARFSGSGSGSDFTLTISSLEPEDFAVYYCQNGHSFPLTFGPGTKVDIKRTVAAPAVFIFPPSDEQLKSGTASVVCLLKNFYPREAKVQWKVDNALQSGNSQESVTEQDSKDSTYSLSSTLTLSKADYEKHKVYACEVTHQGLSSPVTKSFNRGEC
light 2: not shown
notes: Tetravalent; also called wildtype NKE1; copies: 2 + 2 + 2
With B3 the “fold higher affinity compared to human NKp46” value [3] was about 50 fold.

B4: humanized 09 anti-NKp46 antibody (antibody, IgG4, V domains shown)
VH: EVQLQQSGAEVKKPGSSVKVSCKTSGYTFTEYSMHWVRQAPGKSLEWFGGISPNSGGTSYNQKFKGRATLTVDKSSSTAYMELSSLRSEDTAVYYCARRDFHSSFDYWGQGTTVTVSS
VL: DIVMTQSPATLSLSPGERATLSCRASQSISDYLHWFQQKPHESPRLLIKYASQSISGIPARFSGSGSGSDFTLTISSLEPEDFAVYYCQNGHSFPLTFGPGTKVDIK
notes: Humanized with an IgG4 framework; ELISA used MAbs with humanized variable and mutated IgG4, kappa light chain detected; also called 09 antibody humanized
B4 gave a Kd [4] of about 0.027 nM.

B5: humanized 12 anti-NKp46 antibody (antibody, IgG4, V domains shown)
VH: B4 VH
VL: B4 VL with M4L
notes: Humanized with an IgG4 framework; ELISA used MAbs with humanized variable and mutated IgG4, kappa light chain detected; also called 12 antibody humanized
B5 gave a Kd [4] of about 0.025 nM.
